Experimental data: PMC9482650, “Quantitative fragmentomics allow affinity mapping of interactomes” (Nature Communications, 2022)
Positions count from the first letter of the chain named.

T1: APBA2_2, Q99767
T1 sequence (Q99767 654-744, limits assumed, looked up): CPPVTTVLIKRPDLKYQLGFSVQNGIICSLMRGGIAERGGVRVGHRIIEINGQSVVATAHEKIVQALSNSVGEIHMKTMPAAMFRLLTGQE

T2: PCLO, Q9Y6V0
T2 sequence (Q9Y6V0 4491-4600, limits assumed, looked up): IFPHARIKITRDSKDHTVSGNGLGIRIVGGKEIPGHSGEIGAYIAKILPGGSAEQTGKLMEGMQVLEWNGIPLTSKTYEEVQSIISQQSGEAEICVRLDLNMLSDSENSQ

T3: MPDZ_10, O75970
T3 sequence (O75970 1624-1722, limits assumed, looked up): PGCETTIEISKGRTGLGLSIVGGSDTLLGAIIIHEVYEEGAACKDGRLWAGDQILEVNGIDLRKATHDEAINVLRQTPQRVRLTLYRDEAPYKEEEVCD

T4: MPDZ_5, O75970
T4 sequence (O75970 695-796, limits assumed, looked up): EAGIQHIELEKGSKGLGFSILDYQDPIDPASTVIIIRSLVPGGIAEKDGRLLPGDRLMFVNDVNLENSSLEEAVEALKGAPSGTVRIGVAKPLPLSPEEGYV

T5: MPP7, Q5T2T1
T5 sequence (Q5T2T1 134-230, limits assumed, looked up): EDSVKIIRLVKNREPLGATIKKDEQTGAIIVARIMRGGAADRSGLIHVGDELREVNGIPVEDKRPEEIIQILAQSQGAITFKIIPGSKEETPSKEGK

T6: GRIP1_7, Q9Y3R0
T6 sequence (Q9Y3R0 999-1096, limits assumed, looked up): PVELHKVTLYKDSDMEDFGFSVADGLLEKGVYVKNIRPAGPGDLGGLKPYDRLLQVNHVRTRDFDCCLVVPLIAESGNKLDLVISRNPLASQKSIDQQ

T7: ARHGAP21, Q5T5U3
T7 sequence (Q5T5U3 45-169, limits assumed, looked up): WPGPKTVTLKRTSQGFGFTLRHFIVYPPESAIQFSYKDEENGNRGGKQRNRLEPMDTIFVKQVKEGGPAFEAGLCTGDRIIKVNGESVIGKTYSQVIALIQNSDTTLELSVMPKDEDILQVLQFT

T8: MPP6, Q9NZW5
T8 sequence (Q9NZW5 125-219, limits assumed, looked up): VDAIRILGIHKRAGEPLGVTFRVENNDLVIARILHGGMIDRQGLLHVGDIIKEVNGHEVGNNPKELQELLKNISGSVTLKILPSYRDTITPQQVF

T9: HTRA4, P83105
T9 sequence (P83105 378-476, limits assumed, looked up): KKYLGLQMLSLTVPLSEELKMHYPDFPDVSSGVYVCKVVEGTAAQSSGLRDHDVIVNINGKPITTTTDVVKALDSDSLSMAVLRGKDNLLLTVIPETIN

T10: APBA1_2, Q02410
T10 sequence (Q02410 742-832, limits assumed, looked up): T1 sequence (Q99767 654-744, limits assumed, looked up) with K10R, K15R, A59P, Q65H, A66I, S70A, F84Y, G89A

T11: SNTG2, Q9NY99
T11 sequence (Q9NY99 68-166, limits assumed, looked up): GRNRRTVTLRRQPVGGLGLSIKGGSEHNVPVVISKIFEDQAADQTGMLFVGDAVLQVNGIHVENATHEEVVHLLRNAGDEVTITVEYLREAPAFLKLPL

T12: MPP2, Q14168
T12 sequence (Q14168 180-250, limits assumed, looked up): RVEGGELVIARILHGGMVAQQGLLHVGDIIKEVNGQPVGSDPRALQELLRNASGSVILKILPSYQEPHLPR


Columns and labels:
Assay in all cases: holdup assay
Parameters in all cases: key: below the threshold = too weak to quantify, mostly under pKd 3.1 to 4
Conditions in all cases: plain residues with an end cap or a label only (N-terminal biotin on a linker: ado-ado)
[1] = target: T1, APBA2_2, Q99767
[2] = target: MAGI2_6, Q86UL8
[3] = target: IL16_1, Q14005
[4] = target: T2, PCLO, Q9Y6V0
[5] = target: T3, MPDZ_10, O75970
[6] = target: T4, MPDZ_5, O75970
[7] = target: MAGI2_3, Q86UL8
[8] = target: NHERF2_2, Q15599
[9] = target: NHERF4_2, Q86UT5
[10] = target: T5, MPP7, Q5T2T1
[11] = target: T6, GRIP1_7, Q9Y3R0
[12] = target: T7, ARHGAP21, Q5T5U3
[13] = target: T8, MPP6, Q9NZW5
[14] = target: T9, HTRA4, P83105
[15] = target: DLG1_3, Q12959
[16] = target: GRIP2_4, Q9C0E4
[17] = target: GRIP2_5, Q9C0E4
[18] = target: DLG1_1, Q12959
[19] = target: LNX1_1, Q8TBB1
[20] = target: LAP2, Q96RT1
[21] = target: GRIP2_3, Q9C0E4
[22] = target: T10, APBA1_2, Q02410
[23] = target: T11, SNTG2, Q9NY99
[24] = target: MAGI3_2, Q5TCQ9
[25] = target: T12, MPP2, Q14168
[26] = target: SCRIB_2, Q14160
Chain of SCRIB_2, Q14160 (Q14160 857-960): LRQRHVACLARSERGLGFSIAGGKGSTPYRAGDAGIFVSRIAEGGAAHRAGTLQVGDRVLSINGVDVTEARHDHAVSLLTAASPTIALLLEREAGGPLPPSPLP

Chain of LAP2, Q96RT1 (Q96RT1 other isoform, or with tags, fused parts or gaps): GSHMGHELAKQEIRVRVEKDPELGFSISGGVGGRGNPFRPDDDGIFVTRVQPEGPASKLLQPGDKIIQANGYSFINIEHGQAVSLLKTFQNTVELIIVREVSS
Chain of IL16_1, Q14005 (Q14005 210-306): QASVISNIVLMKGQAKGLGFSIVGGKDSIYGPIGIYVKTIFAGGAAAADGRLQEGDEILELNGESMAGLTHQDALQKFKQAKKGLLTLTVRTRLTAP
Chain of NHERF2_2, Q15599 (Q15599 142-238): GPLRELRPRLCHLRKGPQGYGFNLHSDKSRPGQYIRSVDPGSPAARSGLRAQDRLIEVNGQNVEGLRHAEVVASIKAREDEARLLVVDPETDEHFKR
Chain of MAGI3_2, Q5TCQ9 (Q5TCQ9 398-503): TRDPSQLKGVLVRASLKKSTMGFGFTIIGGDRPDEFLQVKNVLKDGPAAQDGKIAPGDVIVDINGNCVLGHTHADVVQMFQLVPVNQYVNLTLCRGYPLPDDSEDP
Chain of GRIP2_5, Q9C0E4 (Q9C0E4 544-642): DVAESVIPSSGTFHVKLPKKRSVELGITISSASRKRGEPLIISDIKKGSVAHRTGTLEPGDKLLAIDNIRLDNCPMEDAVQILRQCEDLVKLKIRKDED
Chain of MAGI2_3, Q86UL8 (Q86UL8 600-682): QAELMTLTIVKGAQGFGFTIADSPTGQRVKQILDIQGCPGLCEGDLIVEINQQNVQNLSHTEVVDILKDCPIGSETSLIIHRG
Chain of LNX1_1, Q8TBB1 (Q8TBB1 261-371): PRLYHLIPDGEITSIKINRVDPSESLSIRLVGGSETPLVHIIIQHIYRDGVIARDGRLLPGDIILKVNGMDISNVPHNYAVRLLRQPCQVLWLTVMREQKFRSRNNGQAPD
Chain of MAGI2_6, Q86UL8 (Q86UL8 1141-1229): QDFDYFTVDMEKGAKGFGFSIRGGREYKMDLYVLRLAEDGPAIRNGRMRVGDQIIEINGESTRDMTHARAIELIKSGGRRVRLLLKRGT
Chain of GRIP2_4, Q9C0E4 (Q9C0E4 446-548): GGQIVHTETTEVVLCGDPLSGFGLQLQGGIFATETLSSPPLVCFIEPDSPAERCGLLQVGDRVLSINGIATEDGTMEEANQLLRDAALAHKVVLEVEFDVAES
Chain of GRIP2_3, Q9C0E4 (Q9C0E4 238-339): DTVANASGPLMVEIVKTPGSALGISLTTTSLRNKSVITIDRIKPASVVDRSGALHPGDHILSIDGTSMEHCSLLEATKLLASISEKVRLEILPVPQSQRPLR
Chain of NHERF4_2, Q86UT5 (Q86UT5 220-308): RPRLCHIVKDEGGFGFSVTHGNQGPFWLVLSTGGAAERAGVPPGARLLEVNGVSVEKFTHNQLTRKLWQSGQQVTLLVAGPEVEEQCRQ

pKd [1] | pKd [2] | pKd [3] | pKd [4] | pKd [5] | pKd [6] | pKd [7] | pKd [8] | pKd [9] | pKd [10] | pKd [11] | pKd [12] | pKd [13] | pKd [14] | pKd [15] | pKd [16] | pKd [17] | pKd [18] | pKd [19] | pKd [20] | further results | Binder
below the threshold | below the threshold | below the threshold | below the threshold | 3.92 | below the threshold | below the threshold | below the threshold | below the threshold | below the threshold | below the threshold | 3.97 | below the threshold | below the threshold | 4.39 | below the threshold | below the threshold | 4.42 | below the threshold | 3.49 | pKd [21]: below the threshold; pKd [22]: 3.73; pKd [23]: below the threshold; pKd [24]: 5.19; pKd [25]: below the threshold; pKd [26]: 3.53 | SMLNRRTTPV [CACNG4, Q9UBN1]
below the threshold | below the threshold | below the threshold | below the threshold | below the threshold | below the threshold | below the threshold | below the threshold | below the threshold | below the threshold | below the threshold | below the threshold | below the threshold | below the threshold | below the threshold | below the threshold | below the threshold | below the threshold | below the threshold | below the threshold | pKd [21]: below the threshold; pKd [22]: below the threshold; pKd [23]: below the threshold; pKd [24]: below the threshold; pKd [25]: below the threshold; pKd [26]: below the threshold | LSEFKAMDSF [CTNNA2, P26232]
3.56 | below the threshold | below the threshold | below the threshold | below the threshold | below the threshold | below the threshold | 3.7 | below the threshold | below the threshold | below the threshold | 4.05 | below the threshold | below the threshold | 3.77 | below the threshold | below the threshold | 3.79 | 3.87 | below the threshold | pKd [21]: below the threshold; pKd [22]: below the threshold; pKd [23]: below the threshold; pKd [24]: 4.48; pKd [25]: below the threshold; pKd [26]: below the threshold | EEDTAEKDEL [HSPA5, P11021]
below the threshold | 3.93 | 3.9 | below the threshold | below the threshold | below the threshold | below the threshold | 4.4 | below the threshold | below the threshold | below the threshold | 4.07 | below the threshold | below the threshold | below the threshold | below the threshold | below the threshold | 3.51 | below the threshold | 3.55 | pKd [21]: below the threshold; pKd [22]: below the threshold; pKd [23]: 4.09; pKd [24]: 3.84; pKd [25]: below the threshold; pKd [26]: below the threshold | PELESKESVL [SLC1A4, P43007]
